In the Human Domainome abundance scans (Beltran et al. 2025) one finds abundance fitness data, which are given here for 35 variants.

B1: Retinoic acid receptor RXR-alpha, residues 132 to 208; numbered along this chain, P19793 (parent)
chain: KHICAICGDRSSGKHYGVYSCEGCKGFFKRTVRKDLTYTCRDNKDCLIDKRQRNRCQYCRYQKCLAMGMKREAVQEE

± gives the uncertainty stated by the source.

In this data set the parent is B1. Nature of the data set: abundance fitness (aPCA) (normalised: wild type 0, dead -1); higher = more abundant; growth selection in yeast, the domain comes from the species named. Particulars: Homo sapiens.
For KHICAIVGDRSSGKHYGVYSCEGCKGFFKRTVRKDLTYTCRDNKDCLIDKRQRNRCQYCRYQKCLAMGMKREAVQEE [C7V], the abundance fitness was -1.11 ± 0.14.

As for KHICAIDGDRSSGKHYGVYSCEGCKGFFKRTVRKDLTYTCRDNKDCLIDKRQRNRCQYCRYQKCLAMGMKREAVQEE [C7D], the abundance fitness was -0.357 ± 0.053.

On to KHICAITGDRSSGKHYGVYSCEGCKGFFKRTVRKDLTYTCRDNKDCLIDKRQRNRCQYCRYQKCLAMGMKREAVQEE [C7T], for which the abundance fitness was -0.981 ± 0.083.

Regarding KHICAIHGDRSSGKHYGVYSCEGCKGFFKRTVRKDLTYTCRDNKDCLIDKRQRNRCQYCRYQKCLAMGMKREAVQEE [C7H], the abundance fitness was -0.942 ± 0.1.

Regarding KHICAIPGDRSSGKHYGVYSCEGCKGFFKRTVRKDLTYTCRDNKDCLIDKRQRNRCQYCRYQKCLAMGMKREAVQEE [C7P], the abundance fitness was -0.961 ± 0.093.

As for KHICAILGDRSSGKHYGVYSCEGCKGFFKRTVRKDLTYTCRDNKDCLIDKRQRNRCQYCRYQKCLAMGMKREAVQEE [C7L], the abundance fitness was -1.23 ± 0.12.

Take KHICAIEGDRSSGKHYGVYSCEGCKGFFKRTVRKDLTYTCRDNKDCLIDKRQRNRCQYCRYQKCLAMGMKREAVQEE [C7E]: the abundance fitness was -0.769 ± 0.13.

For the variant KHICAIYGDRSSGKHYGVYSCEGCKGFFKRTVRKDLTYTCRDNKDCLIDKRQRNRCQYCRYQKCLAMGMKREAVQEE [C7Y], the abundance fitness was -0.917 ± 0.08.

As to KHICAIQGDRSSGKHYGVYSCEGCKGFFKRTVRKDLTYTCRDNKDCLIDKRQRNRCQYCRYQKCLAMGMKREAVQEE [C7Q], the abundance fitness is -0.988 ± 0.15.

For KHICAIMGDRSSGKHYGVYSCEGCKGFFKRTVRKDLTYTCRDNKDCLIDKRQRNRCQYCRYQKCLAMGMKREAVQEE [C7M], the abundance fitness was -0.867 ± 0.14.

For KHICAIIGDRSSGKHYGVYSCEGCKGFFKRTVRKDLTYTCRDNKDCLIDKRQRNRCQYCRYQKCLAMGMKREAVQEE [C7I], the abundance fitness was -1.24 ± 0.16.

As to KHICAIWGDRSSGKHYGVYSCEGCKGFFKRTVRKDLTYTCRDNKDCLIDKRQRNRCQYCRYQKCLAMGMKREAVQEE [C7W], the abundance fitness was -1.22 ± 0.23.

Consider KHICAISGDRSSGKHYGVYSCEGCKGFFKRTVRKDLTYTCRDNKDCLIDKRQRNRCQYCRYQKCLAMGMKREAVQEE [C7S], for which the abundance fitness was -0.944 ± 0.067.

Turning to KHICAINGDRSSGKHYGVYSCEGCKGFFKRTVRKDLTYTCRDNKDCLIDKRQRNRCQYCRYQKCLAMGMKREAVQEE [C7N], the abundance fitness was -0.728 ± 0.07.

With KHICAIFGDRSSGKHYGVYSCEGCKGFFKRTVRKDLTYTCRDNKDCLIDKRQRNRCQYCRYQKCLAMGMKREAVQEE [C7F], the abundance fitness was -1.19 ± 0.14.

Consider KHICAIKGDRSSGKHYGVYSCEGCKGFFKRTVRKDLTYTCRDNKDCLIDKRQRNRCQYCRYQKCLAMGMKREAVQEE [C7K], for which the abundance fitness was -1.29 ± 0.22.

With KHICAIGGDRSSGKHYGVYSCEGCKGFFKRTVRKDLTYTCRDNKDCLIDKRQRNRCQYCRYQKCLAMGMKREAVQEE [C7G], the abundance fitness is -0.921 ± 0.1.

In the case of KHICAIAGDRSSGKHYGVYSCEGCKGFFKRTVRKDLTYTCRDNKDCLIDKRQRNRCQYCRYQKCLAMGMKREAVQEE [C7A], the abundance fitness was -0.919 ± 0.11.

As to KHICAICGERSSGKHYGVYSCEGCKGFFKRTVRKDLTYTCRDNKDCLIDKRQRNRCQYCRYQKCLAMGMKREAVQEE [D9E], the abundance fitness was 0.098 ± 0.055.

As to KHICAICGARSSGKHYGVYSCEGCKGFFKRTVRKDLTYTCRDNKDCLIDKRQRNRCQYCRYQKCLAMGMKREAVQEE [D9A], the abundance fitness is -0.091 ± 0.037.

Consider KHICAICGCRSSGKHYGVYSCEGCKGFFKRTVRKDLTYTCRDNKDCLIDKRQRNRCQYCRYQKCLAMGMKREAVQEE [D9C], for which the abundance fitness was -0.898 ± 0.083.

As to KHICAICGFRSSGKHYGVYSCEGCKGFFKRTVRKDLTYTCRDNKDCLIDKRQRNRCQYCRYQKCLAMGMKREAVQEE [D9F], the abundance fitness is -0.321 ± 0.036.

Turning to KHICAICVDRSSGKHYGVYSCEGCKGFFKRTVRKDLTYTCRDNKDCLIDKRQRNRCQYCRYQKCLAMGMKREAVQEE [G8V], the abundance fitness is -0.228 ± 0.034.

As for KHICAICQDRSSGKHYGVYSCEGCKGFFKRTVRKDLTYTCRDNKDCLIDKRQRNRCQYCRYQKCLAMGMKREAVQEE [G8Q], the abundance fitness is 0.043 ± 0.045.

As to KHICAICHDRSSGKHYGVYSCEGCKGFFKRTVRKDLTYTCRDNKDCLIDKRQRNRCQYCRYQKCLAMGMKREAVQEE [G8H], the abundance fitness is -0.062 ± 0.037.

Consider KHICAICEDRSSGKHYGVYSCEGCKGFFKRTVRKDLTYTCRDNKDCLIDKRQRNRCQYCRYQKCLAMGMKREAVQEE [G8E], for which the abundance fitness worked out at 0.005 ± 0.069.

Consider KHICAICLDRSSGKHYGVYSCEGCKGFFKRTVRKDLTYTCRDNKDCLIDKRQRNRCQYCRYQKCLAMGMKREAVQEE [G8L], for which the abundance fitness was -0.179 ± 0.03.

For KHICAICFDRSSGKHYGVYSCEGCKGFFKRTVRKDLTYTCRDNKDCLIDKRQRNRCQYCRYQKCLAMGMKREAVQEE [G8F], the abundance fitness was found to be 0.006 ± 0.036.

As for KHICAICWDRSSGKHYGVYSCEGCKGFFKRTVRKDLTYTCRDNKDCLIDKRQRNRCQYCRYQKCLAMGMKREAVQEE [G8W], the abundance fitness is -0.1 ± 0.06.

Regarding KHICAICDDRSSGKHYGVYSCEGCKGFFKRTVRKDLTYTCRDNKDCLIDKRQRNRCQYCRYQKCLAMGMKREAVQEE [G8D], the abundance fitness was -0.04 ± 0.039.

In the case of KHICAICYDRSSGKHYGVYSCEGCKGFFKRTVRKDLTYTCRDNKDCLIDKRQRNRCQYCRYQKCLAMGMKREAVQEE [G8Y], the abundance fitness is -0.044 ± 0.043.

On to KHICAICTDRSSGKHYGVYSCEGCKGFFKRTVRKDLTYTCRDNKDCLIDKRQRNRCQYCRYQKCLAMGMKREAVQEE [G8T], for which the abundance fitness is 0.016 ± 0.035.

On to KHICAICMDRSSGKHYGVYSCEGCKGFFKRTVRKDLTYTCRDNKDCLIDKRQRNRCQYCRYQKCLAMGMKREAVQEE [G8M], for which the abundance fitness is -0.07 ± 0.041.

Regarding KHICAICKDRSSGKHYGVYSCEGCKGFFKRTVRKDLTYTCRDNKDCLIDKRQRNRCQYCRYQKCLAMGMKREAVQEE [G8K], the abundance fitness is -0.053 ± 0.05.

For the variant KHICAICCDRSSGKHYGVYSCEGCKGFFKRTVRKDLTYTCRDNKDCLIDKRQRNRCQYCRYQKCLAMGMKREAVQEE [G8C], the abundance fitness was -0.027 ± 0.045.
